Where a chain is given by its changes, count along the chain named.
What was measured:
[1] = molecular target: T1, human immunoglobulin E (hIgE) (human, UniProt P01854-1 1-428); assay: SPR (Biacore) on hIgE
T1 construct: also called human IgE; Native IgE (Abcam)
Description: The ratio of KD measured at pH 5.5 versus KD measured at pH 7.4 was calculated for each of the CL-2C antibodies.

[2] = molecular target: T1, human immunoglobulin E (hIgE); assay: SPR (Biacore), pH 7.4
[3] = molecular target: T1, human immunoglobulin E (hIgE); assay: SPR (Biacore), pH 6.0
[4] = molecular target: T1, human immunoglobulin E (hIgE); assay: competition ELISA, hIgE to hFcεRIα
[5] = molecular target: T2, recombinant Motavizumab human IgE (rMota-hIgE) (human, UniProt P01854 1-428); assay: hIgE binding ELISA, pH 7.4
T2 construct: also called Recombinant IgE (argenx)
Description: Briefly a Maxisorp plate was coated with recombinant human respiratory syncytial virus protein F (RSV-F) (0.5 μg/mL), then blocked with PBS with 3% BSA and 0.05% Tween. […] After several washing steps at pH 7.4 or pH 5.5, detection of the bound mAbs was carried out with an anti-human Fc-HRP antibody.

[6] = molecular target: T1, human immunoglobulin E (hIgE); assay: SPR (Biacore)

T2 sequence (P01854 other isoform, or with tags, fused parts or gaps limits assumed, form in doubt): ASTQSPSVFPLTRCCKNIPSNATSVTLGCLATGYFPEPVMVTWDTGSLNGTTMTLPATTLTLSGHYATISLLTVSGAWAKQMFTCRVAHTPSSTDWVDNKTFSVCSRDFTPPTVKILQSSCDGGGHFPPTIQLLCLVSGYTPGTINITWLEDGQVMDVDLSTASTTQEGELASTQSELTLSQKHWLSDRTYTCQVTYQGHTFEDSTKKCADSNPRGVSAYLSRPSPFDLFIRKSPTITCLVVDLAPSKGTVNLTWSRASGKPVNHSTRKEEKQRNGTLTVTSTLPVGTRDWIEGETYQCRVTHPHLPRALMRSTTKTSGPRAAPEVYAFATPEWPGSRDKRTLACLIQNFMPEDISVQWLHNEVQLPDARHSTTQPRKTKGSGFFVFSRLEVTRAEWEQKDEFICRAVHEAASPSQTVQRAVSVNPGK
T1 sequence (P01854 whole entry): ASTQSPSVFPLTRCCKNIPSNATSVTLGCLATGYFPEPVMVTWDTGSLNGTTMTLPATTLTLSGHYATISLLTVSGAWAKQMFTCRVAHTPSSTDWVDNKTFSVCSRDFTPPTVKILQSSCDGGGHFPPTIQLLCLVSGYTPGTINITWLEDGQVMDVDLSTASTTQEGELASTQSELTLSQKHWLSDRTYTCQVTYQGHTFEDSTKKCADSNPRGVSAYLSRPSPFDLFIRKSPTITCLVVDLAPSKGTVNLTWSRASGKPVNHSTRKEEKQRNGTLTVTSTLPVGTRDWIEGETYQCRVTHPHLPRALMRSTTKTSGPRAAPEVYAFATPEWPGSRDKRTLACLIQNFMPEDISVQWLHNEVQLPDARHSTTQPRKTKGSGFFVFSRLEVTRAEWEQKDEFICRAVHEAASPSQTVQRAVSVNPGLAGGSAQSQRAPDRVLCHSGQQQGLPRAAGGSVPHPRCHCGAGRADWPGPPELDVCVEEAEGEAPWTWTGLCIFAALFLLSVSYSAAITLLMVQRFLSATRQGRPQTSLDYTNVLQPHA

B1: CL-2C mAb 1 (antibody, V domains shown)
VH: QVQLVQSGAEVMKPGSSVKVSCKASGYTFSWYWLEWVRQAPGHGLEWMGEIDPGTFTTHYNEKFKARVTFTADTSTSTAYMELSSLRSEDTAVYYCARFSHFSGSHYDYFDYWGQGTLVTVSS
VL: EIVMTQSPATLSVSPGERATLSCRASQHIGTNIHWYQQKPGQAPRLLIYYASESISGIPARFSGSGSGTEFTLTISSLQSEDFAVYYCQQSWSHPTTFGGGTKVEIK
notes: also called CL-20 mAb 1; VK28H94H + VH58H100BH
- KD Ratio pH 5.5/pH 7.4 [1]: 4.6

B2: CL-2C mAb 2 (antibody, V domains shown)
VH: B1 VH with W33H, H59N, H106N, Y107H
VL: B1 VL
notes: also called CL-20 mAb 2; VK28H94H + VH33H100CH
- KD Ratio pH 5.5/pH 7.4 [1]: 8.5

B3: CL-2C mAb 3 (antibody, V domains shown)
VH: B1 VH with W33H, H59N
VL: B1 VL
notes: also called VK28H94H + VH33H100BH
- KD Ratio pH 5.5/pH 7.4 [1]: 8.4

B4: CL-2C mAb 4 (antibody, V domains shown)
VH: B1 VH with W33H, H59N, S105H, H106N
VL: B1 VL
notes: also called VK28H94H + VH33H100AH
- KD Ratio pH 5.5/pH 7.4 [1]: 3.3

B5: CL-2C mAb 5 (antibody, V domains shown)
VH: B1 VH with H59N, H106N
VL: B1 VL
notes: also called VK28H94H + VHWT
- KD Ratio pH 5.5/pH 7.4 [1]: 0.3

B6: CL-2C mAb 6 (antibody, V domains shown)
VH: B1 VH
VL: B1 VL with H28S, Y50H, Q89H, W92D, H94W
notes: also called VK50H92D89H + VH58H100BH
- KD Ratio pH 5.5/pH 7.4 [1]: 6.1

B7: CL-2C mAb 7 (antibody, V domains shown)
VH: B1 VH with W33H, H59N, H106N, Y107H
VL: B1 VL with H28S, Y50H, Q89H, W92D, H94W
notes: also called VK50H92D89H + VH33H100CH
- KD Ratio pH 5.5/pH 7.4 [1]: 7.9

B8: CL-2C mAb 8 (antibody, V domains shown)
VH: B1 VH with W33H, H59N
VL: B1 VL with H28S, Y50H, Q89H, W92D, H94W
notes: also called VK50H92D89H + VH33H100BH
- KD Ratio pH 5.5/pH 7.4 [1]: 2.8

B9: CL-2C mAb 9 (antibody, V domains shown)
VH: B1 VH with W33H, H59N, S105H, H106N
VL: B1 VL with H28S, Y50H, Q89H, W92D, H94W
notes: also called VK50H92D89H + VH33H100AH
- KD Ratio pH 5.5/pH 7.4 [1]: 2.5

B10: CL-2C mAb 10 (antibody, V domains shown)
VH: B1 VH with H59N, H106N
VL: B1 VL with H28S, Y50H, Q89H, W92D, H94W
notes: also called VK50H92D89H + VHWT
- KD Ratio pH 5.5/pH 7.4 [1]: 0.7

B11: CL-2C mAb 11 (antibody, V domains shown)
VH: B1 VH
VL: B1 VL with H28S, Y50H
notes: also called VK50H94H + VH58H100BH
- KD Ratio pH 5.5/pH 7.4 [1]: 6

B12: CL-2C mAb 12 (antibody, V domains shown)
VH: B1 VH with W33H, H59N, H106N, Y107H
VL: B1 VL with H28S, Y50H
notes: also called VK50H94H + VH33H100CH
- KD Ratio pH 5.5/pH 7.4 [1]: 3.9

B13: CL-2C mAb 13 (antibody, V domains shown)
VH: B1 VH with W33H, H59N
VL: B1 VL with H28S, Y50H
notes: also called VK50H94H + VH33H100BH
- KD Ratio pH 5.5/pH 7.4 [1]: 17.3

B14: CL-2C mAb 14 (antibody, V domains shown)
VH: B1 VH with W33H, H59N, S105H, H106N
VL: B1 VL with H28S, Y50H
notes: also called VK50H94H + VH33H100AH
- KD Ratio pH 5.5/pH 7.4 [1]: 3.2

B15: CL-2C mAb 15 (antibody, V domains shown)
VH: B1 VH with H59N, H106N
VL: B1 VL with H28S, Y50H
notes: also called VK50H94H + VHWT
- KD Ratio pH 5.5/pH 7.4 [1]: 1.1

B16: CL-2C mAb 16 (antibody, V domains shown)
VH: B1 VH
VL: B1 VL with H28S, Y50H, W92D
notes: also called VK50H92D94H + VH58H100BH
- KD Ratio pH 5.5/pH 7.4 [1]: 4.7

B17: CL-2C mAb 17 (antibody, V domains shown)
VH: B1 VH with W33H, H59N, H106N, Y107H
VL: B1 VL with H28S, Y50H, W92D
notes: also called VK50H92D94H + VH33H100CH
- KD Ratio pH 5.5/pH 7.4 [1]: 7.1

B18: CL-2C mAb 18 (antibody, V domains shown)
VH: B1 VH with W33H, H59N
VL: B1 VL with H28S, Y50H, W92D
notes: also called VK50H92D94H + VH33H100BH
- KD Ratio pH 5.5/pH 7.4 [1]: 0.2

B19: CL-2C mAb 19 (antibody, V domains shown)
VH: B1 VH with W33H, H59N, S105H, H106N
VL: B1 VL with H28S, Y50H, W92D
notes: also called VK50H92D94H + VH33H100AH
- KD Ratio pH 5.5/pH 7.4 [1]: 5.2

B20: CL-2C mAb 20 (antibody, V domains shown)
VH: B1 VH with H59N, H106N
VL: B1 VL with H28S, Y50H, W92D
notes: also called VK50H92D94H + VHWT
- KD Ratio pH 5.5/pH 7.4 [1]: 1.1

B21: CL-2C mAb 26 (antibody, V domains shown)
VH: B1 VH
VL: B1 VL with H28S, Y50H, H94W
notes: also called VK50H + VH58H100BH
- KD Ratio pH 5.5/pH 7.4 [1]: 8.9

B22: CL-2C mAb 27 (antibody, V domains shown)
VH: B1 VH with W33H, H59N, H106N, Y107H
VL: B1 VL with H28S, Y50H, H94W
notes: also called VK50H + VH33H100CH
- KD Ratio pH 5.5/pH 7.4 [1]: 7.4

B23: CL-2C mAb 28 (antibody, V domains shown)
VH: B1 VH with W33H, H59N
VL: B1 VL with H28S, Y50H, H94W
notes: also called VK50H + VH33H100BH
- KD Ratio pH 5.5/pH 7.4 [1]: 9

B24: CL-2C mAb 29 (antibody, V domains shown)
VH: B1 VH with W33H, H59N, S105H, H106N
VL: B1 VL with H28S, Y50H, H94W
notes: also called VK50H + VH33H100AH
- KD Ratio pH 5.5/pH 7.4 [1]: 3.8

B25: CL-2C mAb 30 (antibody, V domains shown)
VH: B1 VH with H59N, H106N
VL: B1 VL with H28S, Y50H, H94W
notes: also called VK50H + VHWT
- KD Ratio pH 5.5/pH 7.4 [1]: 1

B26: CL-2C mAb 31 (antibody, V domains shown)
VH: B1 VH
VL: B1 VL with H28S
notes: also called VK94H + VH58H100BH
- KD Ratio pH 5.5/pH 7.4 [1]: 5.5

B27: CL-2C mAb 32 (antibody, V domains shown)
VH: B1 VH with W33H, H59N, H106N, Y107H
VL: B1 VL with H28S
notes: also called VK94H + VH33H100CH
- KD Ratio pH 5.5/pH 7.4 [1]: 6.2

B28: CL-2C mAb 33 (antibody, V domains shown)
VH: B1 VH with W33H, H59N
VL: B1 VL with H28S
notes: also called VK94H + VH33H100BH
- KD Ratio pH 5.5/pH 7.4 [1]: 7

B29: CL-2C mAb 34 (antibody, V domains shown)
VH: B1 VH with W33H, H59N, S105H, H106N
VL: B1 VL with H28S
notes: also called VK94H + VH33H100AH
- KD Ratio pH 5.5/pH 7.4 [1]: 3

B30: CL-2C mAb 35 (antibody, V domains shown)
VH: B1 VH with H59N, H106N
VL: B1 VL with H28S
notes: also called VK94H + VHWT
- KD Ratio pH 5.5/pH 7.4 [1]: 0.6

B31: CL-2C mAb 36 (antibody, V domains shown)
VH: B1 VH
VL: B1 VL with H28S, H94W
notes: also called VKWT + VH58H100BH
- KD Ratio pH 5.5/pH 7.4 [1]: 4.3

B32: CL-2C mAb 38 (antibody, V domains shown)
VH: B1 VH with W33H, H59N
VL: B1 VL with H28S, H94W
notes: also called VKWT + VH33H100BH
- KD Ratio pH 5.5/pH 7.4 [1]: 6.5

B33: CL-2C mAb 39 (antibody, V domains shown)
VH: B1 VH with W33H, H59N, S105H, H106N
VL: B1 VL with H28S, H94W
notes: also called VKWT + VH33H100AH
- KD Ratio pH 5.5/pH 7.4 [1]: 4.6

B34: CL-2C mAb 40 (antibody, V domains shown)
VH: B1 VH with H59N, H106N
VL: B1 VL with H28S, H94W
notes: also called VKWT + VHWT
- KD Ratio pH 5.5/pH 7.4 [1]: 0.6

B35: Oma VH15W100b - VL3D28H (antibody, V domains shown)
VH: EVQLVESGGGLVQPGGSLRLSCAVSGYSITSGHRWEWIRQAPGKGLEWVASIHYDGSTNYNPSVKGRITISRDDSKNTFYLQMNSLRAEDTAVYYCARATHYFGHHHFAVWGQGTLVTVSS
VL: DIQLTQSPSSLSASVGDRVTITCRASQSVDYHGDSYMNWYQQKPGKAPKLLIEWGSYLRSGVPSRFSGSGSGTDFTLTISSLQPEDFATYYCQQNAEDPYTFGQGTKVEIK
notes: also called Oma VH15W100b VL3D25H
- Kd [2]: 8.59 nM
- koff [2]: 0.00182 s⁻¹
- kon [2]: 213000 M⁻¹ s⁻¹
- Kd [3]: 64.5 nM
- koff [3]: 0.0148 s⁻¹
- kon [3]: 232000 M⁻¹ s⁻¹
- IC50 [4]: 35 nM
- EC50 [5]: 0.015 µg/mL
- Ratio pH 7.4/pH6.0 (of KD) [6]: 7.5

B36: Oma VH15W100b - VL3S31H (antibody, V domains shown)
VH: B35 VH
VL: B35 VL with H32D, S35H
- Kd [2]: 6.12 nM
- koff [2]: 0.00244 s⁻¹
- kon [2]: 398000 M⁻¹ s⁻¹
- Kd [3]: 190 nM
- koff [3]: 0.0375 s⁻¹
- kon [3]: 206000 M⁻¹ s⁻¹
- EC50 [5]: 0.0152 µg/mL
- Ratio pH 7.4/pH6.0 (of KD) [6]: 31.1

B37: Oma VH15W100b - VL3D28HS31H (antibody, V domains shown)
VH: B35 VH
VL: B35 VL with S35H
- Kd [2]: 8.78 nM
- koff [2]: 0.00251 s⁻¹
- kon [2]: 290000 M⁻¹ s⁻¹
- Kd [3]: 206 nM
- koff [3]: 0.0895 s⁻¹
- kon [3]: 453000 M⁻¹ s⁻¹
- IC50 [4]: 585 nM
- EC50 [5]: 0.0156 µg/mL
- Ratio pH 7.4/pH6.0 (of KD) [6]: 23.5

B38: OmaVH15G55HW100b - VL3S31H (antibody, V domains shown)
VH: B35 VH with G56H
VL: B35 VL with H32D, S35H
- Kd [2]: 15.4 nM
- koff [2]: 0.00391 s⁻¹
- kon [2]: 253000 M⁻¹ s⁻¹
- Kd [3]: 312 nM
- koff [3]: 0.0986 s⁻¹
- kon [3]: 243000 M⁻¹ s⁻¹
- IC50 [4]: 446 nM
- EC50 [5]: 0.0191 µg/mL
- Ratio pH 7.4/pH6.0 (of KD) [6]: 20.3

B39: OmaVH15G55HW100b - VL3D28HS31H (antibody, V domains shown)
VH: B35 VH with G56H
VL: B35 VL with S35H
notes: human IgG1
- koff [2]: 0.00356 s⁻¹
- IC50 [4]: 9.49 nM

— US20220177604A1 (ARGENX, published 2022)
